B1: GST-tagged mouse ZO-1(PDZ1) (residues 18–110) [mouse] / His6-tagged thioredoxin (Trx) fusion protein of mouse CLD-3 C-terminus (Trx-CLD3, residues 210–219) [mouse] (parent)
chain 1: IWEQHTVTLHRAPGFGFGIAISGGRDNPHFQSGETSIVISDVLKGGPAEGQLQENDRVAMVNGVSMDNVEHAFAVQQLRKSGKNAKITIRRKK
chain 2: GTAYDRKDYV

Variants of: B1
Assay: SPR
Conditions: with His6-tagged thioredoxin (Trx) fusion protein of mouse CLD-3 C-terminus (Trx-CLD3, residues 210–219) [mouse], read off a plot
[1] = absence of phytic acid (gray bar), parent: 1.2e+03
[2] = presence of 10 mM phytic acid (InsP6) (black bar), parent: 530

response [1] [RU] | response [2] [RU] | Variant
1300 | 480 | chain 1 IWEQHTVTLHRAPGFGFGIAISGGRDNPHFQSGETSIVISDVLKGGPAEGQLQENDRVAMVNGVSMDNVEHAFAVQQLRKSGANAKITIRRKK [chain 1 K83A]
1400 | 460 | chain 1 IWEQHTVTLHRAPGFGFGIAISGGRDNPHFQSGETSIVISDVLKGGPAEGQLQENDRVAMVNGVSMDNVEHAFAVQQLRASGKNAKITIRRKK [chain 1 K80A]
340 | 78 | chain 1 IWEQHTVTLHAAPGFGFGIAISGGRDNPHFQSGETSIVISDVLKGGPAEGQLQENDRVAMVNGVSMDNVEHAFAVQQLRKSGKNAKITIRRKK [chain 1 R11A]
